We go through 2 molecules from patent publication US20260185137A1, “FRET Active E2-UBL Conjugates and Uses Thereof” (Board of Regents, The University of Texas System, priority 2021, published 2026).

One series concerns the target T1, UBE2N/V2-Ub conjugate (Homo sapiens, UniProt P61088).
T1 construct: made in house; host or cells: bacteria
Kind of series: FRET ubiquitin discharge assay, UBE2N/V2-Ub conjugate. In kind it is biochemical. Particulars: per RING monomer; room temperature. The source says:
To evaluate contributions of distinct RING oligomeric states to TRIM5α autoubiquitination we investigated the catalytic activity of the RING constructs. E3 ubiquitin ligases catalyze the transfer of ubiquitin from the high-energy thioester-linked E2-Ub conjugates onto an amine group of the substrate. One of the challenges in the mechanistic studies of E3 ligases is the difficulty of measuring rates of chemical transformations catalyzed by E3 ligases with sufficient precision. In this study we developed a FRET-based ubiquitin discharge assay that allows continuous, real-time measurement of E3-catalyzed ubiquitin release from E2-Ub conjugates present at nanomolar concentrations in multiple samples in parallel using a fluorescence plate reader (FIG. 3A). […] FRET signals of the E2-Ub conjugates were recorded as a function of time following addition of different RING constructs using AF488 excitation (485/20 nm) and AF594 emission (645/40 nm) bandpass filters. We observed that more than 40% of the total fluorescence signal decayed in a RING-dependent fashion and could, therefore, be attributed to the FRET signal of the conjugate. The outstanding sensitivity, signal-to-noise and throughput of the FRET decay measurements enabled robust and accurate quantification of ubiquitin discharge. […]

A further series addresses T2, TRIM5α RING domain (Macaca mulatta, UniProt Q0PF16).
T2 construct: The R1 constructs encompass residues 2-90 of rhesus monkey TRIM5α; 6His (N, cleaved yes); GB1 solubility tag (N, cleaved yes); made in house; host or cells: bacteria
Kind of series: 15N HSQC NMR spectroscopy of RING constructs (dimer-monomer exchange). Particulars: NMR time scale, 298K. Also noted: species or system rhesus monkey. How it is done:
We then collected series of ^15N HSQC spectra by gradually decreasing protein concentration of the R1-WT sample from […] to 10 μM. As the concentration of the sample was lowered one set of peaks became progressively weaker whereas a new set of peaks appeared and became dominant (FIG. 2A and FIG. 2B). […] The findings confirmed that the R1-WT construct exists in a dimer-monomer equilibrium and that the two distinct sets of NMR signals present at high and low concentrations correspond to the dimeric and monomeric states of the protein, respectively.
NMR spectroscopy. All NMR experiments were performed in 50 mM Sodium Phosphate (pH 7.5), 150 mM NaCl, 1 mM TCEP, 10% (v/v) D2O, 0.04% (w/v) NaN3, and the data collected at 298K on a Bruker Avance 700-MHz spectrometer equipped with a cryoprobe. Backbone assignments were carried out using standard TROSY triple resonance NMR experiments (HNCO, HN(CA)CO, HN(CO)CA, HNCA, HNCACB, and HN(CO)CACB). Protein concentrations for each experiment are shown in the corresponding figures or noted in figure legends. The NMR data were processed using NMRPipe and spectra evaluated using NMRFAM-Sparky.

T1 sequence (P61088 whole entry, other chains not shown): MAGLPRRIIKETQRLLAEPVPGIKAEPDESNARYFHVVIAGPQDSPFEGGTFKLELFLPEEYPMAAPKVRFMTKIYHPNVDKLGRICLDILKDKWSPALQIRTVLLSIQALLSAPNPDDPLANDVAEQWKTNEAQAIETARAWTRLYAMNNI
T1 sequence (Q15819 whole entry partner, other chains not shown): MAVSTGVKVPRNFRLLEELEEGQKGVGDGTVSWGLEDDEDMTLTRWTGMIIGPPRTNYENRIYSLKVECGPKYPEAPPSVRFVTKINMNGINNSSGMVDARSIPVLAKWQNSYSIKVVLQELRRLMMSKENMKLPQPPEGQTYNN

B1: R2-WT: tandem RING dimer; R82 of first RING linked to A2 of second through Gly-Ser linker (protein)
chain: ASGILLNVKEEVTCPICLELLTEPLSLHCGHSFCQACITANHKKSMLYKEGERSCPVCRISYQPENIQPNRHVANIVEKLRGSASGILLNVKEEVTCPICLELLTEPLSLHCGHSFCQACITANHKKSMLYKEGERSCPVCRISYQPENIQPNRHVANIVEKLREVKLSPEEGQ
B1: the “E3 activity (kcat/Km, initial slopes of Michaelis-Menten curves), ubiquitin discharge from UBE2N/V2-Ub conjugate” value with UBE2N/V2-Ub conjugate is reported as “significantly higher than that of the R1-WT”.

B2: R1-WT: isolated RING monomer construct, residues 2-89 of the rhesus TRIM5α (protein)
chain: ASGILLNVKEEVTCPICLELLTEPLSLHCGHSFCQACITANHKKSMLYKEGERSCPVCRISYQPENIQPNRHVANIVEKLREVKLSPEE
As to B2, in the series with TRIM5α RING domain, the dimer-monomer exchange rate is given as below 10 Hz.
